Experiments:
mouse eyes [1] = assay: Intracameral injection of ANGPTL7 protein in mice, IOP measured over time; assay type: in vivo
Protocol: (§1) Isoflurane anesthetized IOPs were measured as previously described. For IOP measurements, mice were anesthetized before IOP was measured in both eyes using a TonoLab rebound tonometer (Colonial Medical Supply, Franconia, N H). IOP measurements for both eyes were completed in 3-5 minutes. IOP in each eye was measured before start of Angptl7 injections and every day afterwards for six days.
A 33-gauge needle with a glass microsyringe (5-4 volume) (Hamilton Company) was used. Before and during injection, mice were anesthetized with isoflurane (2.5%) containing oxygen (0.8 L/min). For topical anesthesia, both eyes received one to two drops of 0.5% proparacaine HCl (Akorn, Inc.). Each eye was proptosed and the needle was inserted through the cornea just above the limbal region and into the anterior chamber at an angle parallel to the cornea, taking care to avoid touching the iris, anterior lens capsule epithelium, or corneal endothelium. Up to 1 μL of ANGPTL7 protein (catalog #4960-AN-025; R&D Systems, Minneapolis, MN) or PBS was injected slowly (over a 30-second period). The needle was then withdrawn. The procedure was performed on both eyes of each animal. Only one injection was administered at day 0.

mouse eyes [2] = assay: Intravitreal injection of ANGPTL7 protein in mice, IOP measured over time; assay type: in vivo
Protocol: as §1
A 33-gauge needle with a glass microsyringe (5-4 volume; Hamilton Company) was used. The eye was proptosed, and the needle was inserted through the equatorial sclera and inserted into the vitreous chamber at an angle of approximately 45 degrees, taking care to avoid touching the posterior part of the lens or the retina. ANGPTL7 protein (catalog #4960-AN-025; R&D Systems, Minneapolis, MN) or PBS (1 μL) was injected into the vitreous over the course of 1 minute. The needle was then left in place for a further 45 seconds (to facilitate mixing), before being rapidly withdrawn. Only one injection was administered at day 0.

B1: ANGPTL7 protein: ANGPTL7 protein (catalog #4960-AN-025; R&D Systems), murine Angptl7 protein injected into mouse eyes (protein, UniProt Q8R1Q3 22-337, looked up)
Angiopoietin-related protein 7: QKPHKRKTQLKAAGCCEEMRELKAQVANLSSLLGELSRKQESDWVSVVMQVMELESSSKHMESRLSTAESKYSEMNNQIDIMQLQAAQTVTQTSADAIYDCSSLYQKNYRISGVYKLPPDEFLGSPELEVFCDMETSGGGWTIIQRRKSGLVSFYQDWRQYKQGFGSIRGDFWLGNEHIHRLTRQPSRLRVELEDWEGNARYAEYSYFALGNELNSYRLFLGNYSGNVGKDALLYHNNTVFSTKDKDNDNCLDKCAQLRKGGYWYNCCTDSNLNGVYYRLGEHRKHMDGISWYGWHGANYSLKRVEMKIRPEAFKP
elevation of IOP (mouse eyes [1]; mice, single intracameral injection at day 0, after an initial drop, starting on day 3 until end of experiment on day 7): 2-5 mmHg | IOP in Angptl7-treated eyes compared to control eyes (mouse eyes [1]; mouse eyes, intracameral route, after an initial drop (FIG. 6B)): elevated | elevation of IOP (mouse eyes [2]; mice, single intravitreal injection at day 0, after an initial drop, starting on day 4 until end of experiment on day 7): 4-5 mmHg | elevation of IOP compared to baseline (mouse eyes [2]; mice, single intravitreal injection at day 0, starting on day 4 until day 7): 22-25% | IOP in Angptl7-treated eyes compared to control eyes (mouse eyes [2]; mouse eyes, intravitreal route, after an initial drop (FIG. 6A)): elevated
